Results on 1 molecule are retold here after patent US6939679 (RIKEN, dated 2005).

In the assay the target is T1, Mus 16-3-3 epsilon (mouse, UniProt P62259 1-255).
T1 construct: VP16 fusion as in the yeast two-hybrid screen; also called 14-3-3 E; 14-3-3 epsilon
T1 sequence: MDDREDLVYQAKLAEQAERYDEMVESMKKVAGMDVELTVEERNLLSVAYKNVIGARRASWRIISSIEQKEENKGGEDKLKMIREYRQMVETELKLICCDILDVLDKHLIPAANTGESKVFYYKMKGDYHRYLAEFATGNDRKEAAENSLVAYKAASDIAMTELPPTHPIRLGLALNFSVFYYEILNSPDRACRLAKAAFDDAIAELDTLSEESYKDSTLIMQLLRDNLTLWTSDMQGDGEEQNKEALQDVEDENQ
In words: yeast two-hybrid, lexA-NADE bait against VP16 mouse embryo cDNA library; His selection, beta-gal assay and mating test.

B1: NADE-lexA fusion protein (other)
chain: MANVHQENEEMEQPLQNGQEDRPVGGGEGHQPAANNNNNNHNHNHNHHRRGQARRLAPNFRWAIPNRQMNDGLGGDGDDMEMFMEEMREIRRKLRELQLRNCLRILMGELSNHHDHHDEFCLMP
notes: range 1-124; Bait of the yeast two-hybrid screen; also called pBTM116-NADE; lexA-X fusion protein
In the case of B1, the binding result is “binds”.
